B1: GST::At-I2 (natural protein)
chain: MTEPKRGRVQWDEANIVEIESNKPVRQKITEPKTPYHPMMDDDGSLSPRGRAFDECVDDMQRAEELRNVLNDAAASSSRNSSQGSGGGGWSSSDEEEEEADPMDQDEEGSGSGKNERFNAHRKAHYDEFRKVKELRSSGSFYEEEEEEDDGAKGSKSETTTNSRHTKGGNKELDATKTVSGTSSSSSPELI

Legend:
[1] = biological target: 6xHis::TdPP1a (durum wheat)
[2] = biological target: TdPP1-T243M (durum wheat)
[3] = biological target: TdPP1-H135A (durum wheat)
[4] = biological target: 6xHis::TdPP1a (durum wheat); remark: listed apart in the source
[5] = biological target: TdPP1-H135A (durum wheat); remark: listed apart in the source
[6] = biological target: TdPP1-H135A (durum wheat); remark: listed apart in the source

Row | Molecule | percent inhibition of phosphatase activity (pNPP) at three TdRL1 concentrations; 59% at 26 nM (1:1 molar ratio), highest value at the higher concentration [1] | IC50 of inhibition of phosphatase activity (pNPP substrate, 37 °C, 1 μg enzyme) [2] | IC50 of inhibition of phosphatase activity (pNPP substrate, 37 °C, 1 μg enzyme) [3] | IC50 of inhibition of phosphatase activity (pNPP substrate, 37 °C, 1 μg enzyme) [4] | percent inhibition of phosphatase activity (pNPP) by TdRL1 at three concentrations; value at high concentrations [5] | percent inhibition of phosphatase activity (pNPP) at three At-I2 concentrations; maximum at the highest concentration used [1] | percent inhibition of phosphatase activity (pNPP) by At-I2 at three concentrations; highest at high concentration [6]
1 | 6xHis-MBP::TdRL1 (natural protein) | 89.7% | 35.6 nM | 37 nM | 32 nM | 91% |  | 
2 | B1 |  |  |  |  |  | 90.4% | 100%

Reference: publication PMC12109034
